The source of these data is US20070207519A1 (SANDOZ, published 2007).

The test deals with T1, β-subunit of wild-type CPC acylase derived from Pseudomonas sp. SE83 (Pseudomonas sp. SE83, UniProt P15558 240-774).
T1 construct: About 58 kDa subunit of 535 amino acids; also called AcyII β-subunit; CPC acylase β-subunit
T1 sequence: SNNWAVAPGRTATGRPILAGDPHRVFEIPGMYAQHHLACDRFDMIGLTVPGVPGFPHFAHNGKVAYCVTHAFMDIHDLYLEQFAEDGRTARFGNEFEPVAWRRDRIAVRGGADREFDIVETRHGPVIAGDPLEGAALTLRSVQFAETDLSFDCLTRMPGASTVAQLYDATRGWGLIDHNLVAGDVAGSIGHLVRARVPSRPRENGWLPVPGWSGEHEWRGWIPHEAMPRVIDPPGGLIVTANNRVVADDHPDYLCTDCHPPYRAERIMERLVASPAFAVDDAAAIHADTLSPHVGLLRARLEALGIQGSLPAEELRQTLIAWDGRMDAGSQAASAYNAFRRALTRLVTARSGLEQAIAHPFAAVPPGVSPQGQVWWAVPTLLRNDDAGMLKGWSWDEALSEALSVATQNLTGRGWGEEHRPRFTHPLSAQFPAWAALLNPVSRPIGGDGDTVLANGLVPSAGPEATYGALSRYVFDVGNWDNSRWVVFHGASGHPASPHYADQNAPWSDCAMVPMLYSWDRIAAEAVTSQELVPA
Put plainly: non-denaturing PAGE and MALDI-TOF of the purified enzyme (single species of about 83 kDa) against denaturing SDS-PAGE (bands of 25 kDa and 58 kDa). The text has this: Further, the active fraction of wild-type CPC acylase obtained in Example <2-1> was subjected to non-denaturing PAGE and Coomasie blue staining. As a result, a single band was detected at a position corresponding to the molecular weight of about 83 kDa, which means that the wild-type CPC acylase was purely purified (FIGS. 11a to 11c). Together with the result of non-denaturing PAGE, MALDI-TOF mass spectrophotometry analysis confirmed that the molecular weight of purified enzyme (that is, the active CPC acylase) is about 83 kDa. Furthermore, about 25 kDa of band corresponding to α-subunit and about 58 kDa of band corresponding to β-subunit were detected by denaturing SDS-PAGE.

B1: α-subunit of wild-type CPC acylase derived from Pseudomonas sp. SE83 (enzyme)
chain: TMAAKTDREALQAALPPLSGSLSIPGLSAPVRVQRDGWGIPHIKASGEADAYRALGFVHAQDRLFQMELTRRKALGRAAEWLGAEAAEADILVRRLGMEKVCRRDFEALGAEAKDMLRAYVAGVNAFLASGAPLPIEYGLLGAEPEPWEPWHSIAVMRRLGLLMGSVWFKLWRMLALPVVGAANALKLRYDDGGQDLLCIPPGVEAERLEADLAALRPAVDALLKAMGG
notes: About 25 kDa subunit of 229 amino acids; also called AcyII α-subunit; CPC acylase α-subunit
On to B1, for which the binding result is given as “binds”.
